According to US20170101472A1 (Regeneron, published 2017):

T1: cynomolgus LAG3 on activated CD4+ and CD8+ cynomolgus T cells (cynomolgus)
T1 chain: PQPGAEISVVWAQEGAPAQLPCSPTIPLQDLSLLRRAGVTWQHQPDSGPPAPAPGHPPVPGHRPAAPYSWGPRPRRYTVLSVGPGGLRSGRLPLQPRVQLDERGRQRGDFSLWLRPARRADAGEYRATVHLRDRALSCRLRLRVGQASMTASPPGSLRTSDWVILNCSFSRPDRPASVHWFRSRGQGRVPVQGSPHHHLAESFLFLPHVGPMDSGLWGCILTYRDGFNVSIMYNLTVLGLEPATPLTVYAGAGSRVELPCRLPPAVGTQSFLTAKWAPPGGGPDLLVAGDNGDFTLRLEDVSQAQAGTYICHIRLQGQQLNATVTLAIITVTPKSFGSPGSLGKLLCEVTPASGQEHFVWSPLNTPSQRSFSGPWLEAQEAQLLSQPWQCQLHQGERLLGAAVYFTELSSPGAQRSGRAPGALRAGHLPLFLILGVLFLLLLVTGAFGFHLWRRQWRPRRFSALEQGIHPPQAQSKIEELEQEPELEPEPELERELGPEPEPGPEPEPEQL

B1: H4sH15482P (antibody, human IgG4 S228P, kappa)
heavy: QVQLVESGGGVVQPGRSLRLSCVASGFTFSSYGMHWVRQAPGKGLEWVAIIWYDGSNKYYADSVKGRFTISRDNSKNTQYLQMNSLRAEDTAVYYCASVATSGDFDYYGMDVWGQGTTVTVSSASTKGPSVFPLAPCSRSTSESTAALGCLVKDYFPEPVTVSWNSGALTSGVHTFPAVLQSSGLYSLSSVVTVPSSSLGTKTYTCNVDHKPSNTKVDKRVESKYGPPCPPCPAPPVAGPSVFLFPPKPKDTLMISRTPEVTCVVVDVSQEDPEVQFNWYVDGVEVHNAKTKPREEQFNSTYRVVSVLTVLHQDWLNGKEYKCKVSNKGLPSSIEKTISKAKGQPREPQVYTLPPSQEEMTKNQVSLTCLVKGFYPSDIAVEWESNGQPENNYKTTPPVLDSDGSFFLYSRLTVDKSRWQEGNVFSCSVMHEALHNHYTQKSLSLSLGK
light: EIVLTQSPATLSLSPGERTTLSCRASQRISTYLAWYQQKPGQAPRLLIYDASKRATGIPARFSGSGSGTGFTLTISSLEPEDFAVYYCQQRSNWPLTFGGGTKVEIKRTVAAPSVFIFPPSDEQLKSGTASVVCLLNNFYPREAKVQWKVDNALQSGNSQESVTEQDSKDSTYSLSSTLTLSKADYEKHKVYACEVTHQGLSSPVTKSFNRGEC
notes: H4sH = modified human IgG4 Fc; also called mAb1
B2: H4sH14813N (antibody, human IgG4 S228P, kappa, V domains shown)
VH: QVQLQQWGAGLLKPSETLSLTCAVYGGSFSGYYWNWIRQPPGKGLEWVGEISHRGSTNYNPSLKSRVTISLDTSKNQFSLKLTSVTAADTAVYYCSRDEELEFRFFDYWGQGTLVTVSS
VL: EIVLTQSPATLSLSPGERATLSCRASQSVSSYLAWYQQKPGQAPRLLVYGASNRATGIPARFSGSGSGTDFTLTISSLEPEDFAFYYCQQRSNWPLTFGGGTKVEIKR
notes: H4sH = modified human IgG4 Fc

What was measured:
[1] = target: T1, cynomolgus LAG3 on activated CD4+ and …; assay: FACS, stimulated cynomolgus CD8+ T cells, donor 1
Description: (§1) Next, stimulated cynomolgus T-cells from each donor, as described above, were stained with LIVE/DEAD dye (Molecular Probes) to distinguish between live and dead cells via FACS. Subsequently, cells were co-incubated with PE-conjugated anti-CD8 and FITC-conjugated anti-CD4 for 15 min on ice to enable the detection of CD4 and CD8 positive and negative cell populations.
(§2) Next, the serially diluted antibodies were directly labeled using Zenon Alexa-Fluor 647 (Molecular Probes) and incubated with the cynomolgus CD4+/CD8+ T-cell suspension for 15-30 min on ice. Cells were centrifuged and pellets washed with staining buffer to remove unbound antibodies and fixed for 12 h with a 1:1 dilution of Cytofix (BD Biosciences) and staining buffer. Following the incubation period, fixation buffer was removed and pellets were resuspended in staining buffer, filtered, and used for fluorescence measurements.
(§3) Fluorescence measurements were acquired on the Fortessa (Becton Dickinson) and data analyzed in FlowJo to determine the mean fluorescence intensities (MFI). EC₅₀ values were calculated from a four-parameter logistic equation over an 11-point response curve using GraphPad Prism.

[2] = target: T1, cynomolgus LAG3 on activated CD4+ and …; assay: FACS, stimulated cynomolgus CD4+ T cells, donor 2
Description: as §1, §2, §3

[3] = target: T1, cynomolgus LAG3 on activated CD4+ and …; assay: FACS, stimulated cynomolgus CD4+ T cells, donor 1
Description: as §1, §2, §3

[4] = target: T1, cynomolgus LAG3 on activated CD4+ and …; assay: FACS, stimulated cynomolgus CD8+ T cells, donor 2
Description: as §1, §2, §3

| Binder | EC50 [1] | EC50 [2] | EC50 [3] | EC50 [4] | Ratio of MFI (11 nM/0 nM) [1] | Ratio of MFI (11 nM/0 nM) [2] | Ratio of MFI (11 nM/0 nM) [3] | Ratio of MFI (11 nM/0 nM) [4] |
| --- | --- | --- | --- | --- | --- | --- | --- | --- |
| B1 | 0.46 nM | 0.38 nM | 1.2 nM | 0.41 nM | – | – | – | – |
| B2 | 0.085 nM | 0.22 nM | 0.42 nM | 0.11 nM | 3.5 | 1.5 | 1.3 | 6.3 |
